In patent US20230416363A1 (KADMON, published 2023):

What was measured:
hPD-1-Fc [1] = target: T1, hPD-1-Fc (human, UniProt Q15116 25-167); assay: ELISA, hPD-1-Fc coated
T1 construct: domain: IgV domain; also called human PD-1-Fc; not shown: human IgG1 Fc

[2] = target: T2, human PD-1 expressed on cells (human, UniProt Q15116 25-288); assay: cell-based or functional assay
[3] = target: T2, human PD-1 expressed on cells; assay: cell-based or functional assay; remark: listed apart in the source
hPD-1-his [4] = target: T3, hPD-1-his (human, UniProt Q15116 25-167); assay: ELISA, captured hPD-1-his
T3 construct: domain: IgV domain; monomer in solution; biotin-labelled where captured by streptavidin; also called biotin-hPD-1-his
T3 sequence (Q15116 other isoform, or with tags, fused parts or gaps limits assumed): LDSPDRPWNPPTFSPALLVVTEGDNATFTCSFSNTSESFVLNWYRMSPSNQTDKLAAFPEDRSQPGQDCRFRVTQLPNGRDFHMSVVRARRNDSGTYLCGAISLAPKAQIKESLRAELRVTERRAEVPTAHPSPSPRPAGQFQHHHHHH

[5] = target: T2, human PD-1 expressed on cells; assay: flow cytometry, hPD1-293 cells
[6] = target: T2, human PD-1 expressed on cells; assay: flow cytometry, hPD1-293 cells; remark: listed apart in the source
[7] = target: T2, human PD-1 expressed on cells; assay: flow cytometry, hPD1-Jurkat cells
hPD-1-Fc [8] = target: T1, hPD-1-Fc; assay: blocking ELISA, hPD-1-Fc to hPD-L1-Fc
hPD-1-Fc [9] = target: T1, hPD-1-Fc; assay: SPR Biacore T200, PD-1-Fc immobilised
hPD-1-his [10] = target: T3, hPD-1-his; assay: SPR Biacore T200, PD-1-his immobilised
[11] = target: T2, human PD-1 expressed on cells; assay: flow cytometry, SEB-activated PBMC donor three
[12] = target: T2, human PD-1 expressed on cells; assay: flow cytometry, SEB-activated PBMC donor one
hPD-1-Fc [13] = target: T1, hPD-1-Fc; assay: SPR, Exp. 1
hPD-1-his [14] = target: T3, hPD-1-his; assay: SPR, Exp. 1
hPD-1-his [15] = target: T3, hPD-1-his; assay: SPR, Exp. 2
hPD-1-Fc [16] = target: T1, hPD-1-Fc; assay: SPR, Exp. 3
hPD-1-his [17] = target: T3, hPD-1-his; assay: SPR, Exp. 3
hPD-1-his [18] = target: T3, hPD-1-his; assay: SPR, Exp. 4
[19] = target: T2, human PD-1 expressed on cells; assay: cell-based or functional assay; remark: listed apart in the source
hPD-1-Fc [20] = target: T1, hPD-1-Fc; assay: ELISA, hPD1-Fc coated
hPD-1-Fc [21] = target: T1, hPD-1-Fc; assay: ELISA, PD-1-Fc coated
[22] = target: T2, human PD-1 expressed on cells; assay: cell-based or functional assay; remark: listed apart in the source
hPD-1-his [23] = target: T3, hPD-1-his; assay: ELISA, PD-1-his on anti-his
hPD-1-Fc [24] = target: T1, hPD-1-Fc; assay: SPR, range over experiments
hPD-1-his [25] = target: T3, hPD-1-his; assay: ELISA, hPD-1-his on anti-his
hPD-1-Fc [26] = target: T1, hPD-1-Fc; assay: blocking ELISA, PD-1 to PD-L1
hPD-1-Fc [27] = target: T1, hPD-1-Fc; assay: blocking ELISA, PD-1 to PD-L2
[28] = target: T2, human PD-1 expressed on cells; assay: flow cytometry, hPD-1-293 cells
[29] = target: T2, human PD-1 expressed on cells; assay: flow cytometry, hPD-1-Jurkat cells
hPD-1-Fc [30] = target: T1, hPD-1-Fc; assay: blocking ELISA, hPD-1-Fc to hPD-L1-Fc; remark: listed apart in the source
hPD-1-his [31] = target: T3, hPD-1-his; assay: ELISA, biotin-PD-1-his on streptavidin
hPD-1-his [32] = target: T3, hPD-1-his; assay: ELISA, biotin-hPD-1-his on streptavidin
[33] = target: T2, human PD-1 expressed on cells; assay: flow cytometry, activated PBMC donor FA
[34] = target: T2, human PD-1 expressed on cells; assay: flow cytometry, activated PBMC donor two
[35] = target: T2, human PD-1 expressed on cells; assay: flow cytometry, SEB-activated PBMC donor
[36] = target: T2, human PD-1 expressed on cells; assay: flow cytometry, SEB-activated PBMC donor two

T2 sequence (Q15116 25-288): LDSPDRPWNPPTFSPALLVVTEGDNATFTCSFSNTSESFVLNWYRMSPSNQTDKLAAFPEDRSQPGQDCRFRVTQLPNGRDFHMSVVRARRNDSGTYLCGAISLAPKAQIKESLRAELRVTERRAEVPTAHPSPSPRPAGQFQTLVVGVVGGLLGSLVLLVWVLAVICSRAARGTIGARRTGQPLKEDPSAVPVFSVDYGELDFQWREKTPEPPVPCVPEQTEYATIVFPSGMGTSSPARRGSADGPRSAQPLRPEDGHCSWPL
T1 sequence (Q15116 25-167 limits assumed): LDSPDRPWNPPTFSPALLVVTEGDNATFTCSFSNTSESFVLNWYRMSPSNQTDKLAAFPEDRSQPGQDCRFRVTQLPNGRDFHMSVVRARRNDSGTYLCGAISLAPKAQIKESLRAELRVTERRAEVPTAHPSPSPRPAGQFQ

B1: 24H9 (antibody, human IgG1, V domains shown)
VH: EVQLLESGGGLVQPGGSLRLSCAASGFTFSSYWMSWVRQAPGKGLEWVSAISGSGGSTYYADSVKGRFTISRDNSKNTLYLQMNSLRAEDTAVYYCASSPLQWVDVWGQGTTVTVSS
VL: DIQMTQSPSSLSASVGDRVTITCRASQGISSWLAWYQQKPGKAPKLLIYSASSLQSGVPSRFSGSGSGTDFTLTISSLQPEDFATYYCQQANSFPFTFGPGTKVDIK
In the case of B1, the EC50 (hPD-1-Fc [1]) is reported as 0.128 nM, the “OD at 10 nM” value (hPD-1-Fc [1]) is reported as 1.84 OD450 and the “EC 50, Promega PD-1/PD-L1 blockade bioassay” value [2] is reported as 0.823 µg/mL. The Fold of induction [2] was 3.96 fold, the “EC50, Promega blockade bioassay” value [3] was 0.855 µg/mL and the Fold induction [3] was 4.97 fold. The EC50 (hPD-1-his [4]) was 1.31 nM, the “OD at 10 nM” value (hPD-1-his [4]) was 0.69 OD450 and the EC50 [5] was 58.7 nM. The “MFI at 68 nM” value [5] was 59 MFI, the EC50 [6] was 2.69 nM and the “MFI at 5 nM” value [6] was 42.8 MFI. For the same binder, the EC50 [7] was 0.77 nM, the “MFI at 5 nM” value [7] was 80.6 MFI and the IC50 (hPD-1-Fc [8]) was 2.28 nM. The “Inhibition % (3.3 nM)” value (hPD-1-Fc [8]) was 70%, the “Inhibition % (30 nM)” value (hPD-1-Fc [8]) was 92.9% and the Kd (hPD-1-Fc [9]) was 1.46 nM. For the same binder, the Kd (hPD-1-his [10]) was 13.9 nM, the EC50 [11] was 0.913 nM and the “MFI at 100 nM” value [11] was 70.5 MFI. The EC50 [12] was 1.37 nM and the “MFI at 100 nM” value [12] was 18.7 MFI.

B2: 31B1 (antibody, V domains shown)
VH: QVQLVQSGAEVKKPGSSVKVSCKASGGTFSSSVISWVRQAPGQGLEWMGGIIPIFGTANYAQKFQGRVTITADESTSTAYMELSSLRSEDTAVYYCAREGLGCSGGSCYSGYYYGMDVWGQGTTVTVSS
VL: DIVMTQSPLSLPVTPGEPASISCRSSQSLLHSNGYNYLDWYLQKPGQSPQLLIYEASSLHSGVPDRFSGSGSGTDFTLKISRVEAEDVGVYYCMQGTHWPYTFGQGTKVEIK
notes: also called 780_38; 33B1 and 31B2 (apparent misprints)
With B2 the Kd (hPD-1-Fc [13]) was < 0.014 nM, the Kd (hPD-1-his [14]) was < 0.036 nM and the Kd (hPD-1-his [15]) was < 0.01 nM. For the same binder, the Kd (hPD-1-Fc [16]) was < 0.01 nM, the Kd (hPD-1-his [17]) was 0.353 nM and the Kd (hPD-1-his [18]) was < 0.019 nM. For the same binder, the “EC50 averaged from two experiments, Promega blockade bioassay” value [19] was 0.168 µg/mL, the EC50 (hPD-1-Fc [20]) was 0.167 nM and the “OD450 at 10 nM” value (hPD-1-Fc [20]) was 0.974 OD450. The EC50 (hPD-1-Fc [21]) was 0.114 nM, the “EC50, Promega blockade bioassay” value [3] was 0.139 µg/mL and the Fold induction [3] was 6.48 fold. The “EC50, Promega blockade bioassay, Exp. 1” value [22] was 0.168 µg/mL, the “EC50, Promega blockade bioassay, Exp. 2” value [22] was 0.172 µg/mL and the “Fold induction at 12 µg/ml, Exp. 1” value [22] was 7.44 fold. The “Fold induction at 12 µg/ml, Exp. 2” value [22] was 8.4 fold, the EC50 (hPD-1-his [23]) was 0.139 nM and the Kd (hPD-1-Fc [24]) was 0.01 to 0.02 nM. For the same binder, the EC50 (hPD-1-his [25]) was 0.095 nM, the “OD450 at 10 nM” value (hPD-1-his [25]) was 0.59 OD450 and the IC50 (hPD-1-Fc [26]) was 2.65 nM. The “Inhibition, % at 5.56 nM” value (hPD-1-Fc [26]) was 89.7%, the IC50 (hPD-1-Fc [27]) was 3.94 nM and the “Inhibition, % at 3.7 nM” value (hPD-1-Fc [27]) was 41.4%. The “Inhibition, % at 100 nM” value (hPD-1-Fc [27]) was 94.5%, the EC50 [6] was 0.077 nM and the “MFI at 5 nM” value [6] was 46.4 MFI. The “MFI, 5 nM” value [28] was 186 MFI, the EC50 [7] was 0.084 nM and the “MFI at 5 nM” value [7] was 91.6 MFI. For the same binder, the “MFI, 5 nM” value [29] was 67 MFI, the IC50 (hPD-1-Fc [30]) was 2.15 nM and the “Inhibition % at 5.6 nM” value (hPD-1-Fc [30]) was 90.2%. The “Inhibition % at 50 nM” value (hPD-1-Fc [30]) was 91.4%, the Kd (hPD-1-Fc [9]) was 0.688 nM and the Kd (hPD-1-his [10]) was 6.56 nM. The EC50 (hPD-1-his [31]) was 0.104 nM, the EC50 (hPD-1-his [32]) was 0.244 nM and the “OD450 at 10 nM” value (hPD-1-his [32]) was 0.953 OD450. The EC50 [33] was 0.049 nM, the “MFI at 25 nM” value [33] was 18.4 MFI and the EC50 [34] was 0.025 nM. The “MFI at 25 nM” value [34] was 17.8 MFI, the “MFI, 5 nM” value [35] was 98.5 MFI and the “MFI, 5 nM” value [36] was 67.7 MFI.

B3: 23H9 (antibody, human IgG1, V domains shown)
VH: B2 VH
VL: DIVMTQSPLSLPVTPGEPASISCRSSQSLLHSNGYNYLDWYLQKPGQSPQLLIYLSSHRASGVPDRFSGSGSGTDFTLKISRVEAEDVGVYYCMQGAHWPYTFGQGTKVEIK
With B3 the EC50 (hPD-1-Fc [20]) was 0.121 nM, the “OD450 at 10 nM” value (hPD-1-Fc [20]) was 0.916 OD450 and the EC50 (hPD-1-Fc [1]) was 0.151 nM. For the same binder, the “OD at 10 nM” value (hPD-1-Fc [1]) was 1.75 OD450, the “EC 50, Promega PD-1/PD-L1 blockade bioassay” value [2] was 0.688 µg/mL and the Fold of induction [2] was 4.42 fold. For the same binder, the “EC50, Promega blockade bioassay” value [3] was 0.551 µg/mL, the Fold induction [3] was 5.58 fold and the EC50 (hPD-1-his [4]) was 0.35 nM. The “OD at 10 nM” value (hPD-1-his [4]) was 1.25 OD450, the EC50 (hPD-1-his [25]) was 0.238 nM and the “OD450 at 10 nM” value (hPD-1-his [25]) was 0.406 OD450. For the same binder, the EC50 [5] was 2.53 nM, the “MFI at 68 nM” value [5] was 38.8 MFI and the EC50 [6] was 0.33 nM. The “MFI at 5 nM” value [6] was 43 MFI, the EC50 [7] was 0.42 nM and the “MFI at 5 nM” value [7] was 120 MFI. For the same binder, the IC50 (hPD-1-Fc [8]) was 2.04 nM, the “Inhibition % (3.3 nM)” value (hPD-1-Fc [8]) was 82.5% and the “Inhibition % (30 nM)” value (hPD-1-Fc [8]) was 94.7%. The IC50 (hPD-1-Fc [30]) was 1.27 nM, the “Inhibition % at 5.6 nM” value (hPD-1-Fc [30]) was 88.6% and the “Inhibition % at 50 nM” value (hPD-1-Fc [30]) was 90.4%. For the same binder, the Kd (hPD-1-Fc [9]) was 0.928 nM, the Kd (hPD-1-his [10]) was 4.91 nM and the EC50 (hPD-1-his [32]) was 0.18 nM. The “OD450 at 10 nM” value (hPD-1-his [32]) was 0.89 OD450, the EC50 [11] was 0.829 nM and the “MFI at 100 nM” value [11] was 109 MFI. The EC50 [12] was 0.993 nM and the “MFI at 100 nM” value [12] was 26.2 MFI.
